# Results: patent US20220275101A1, “Use of Approved Anti-CD38 Antibody Drug Product to Treat Light Chain Amyloidosis” (Janssen Biotech, Inc., priority 2021, published 2022)
# Marks after values point to notes of the source that are not given here.
# Experiments:
# [1] = Daratumumab pharmacokinetics after DARZALEX FASPRO, population not specified or pooled; type: in vivo, human; conditions: DARZALEX FASPRO as monotherapy or combination therapy
# [2] = Daratumumab pharmacokinetics in patients with light chain (AL) amyloidosis; type: in vivo, human
# [3] = target: T1, CD38 on red blood cells (RBCs) (Homo sapiens, UniProt P28907); test: Interference with Indirect Antiglobulin Test (Indirect Coombs test)
# T1 construct: endogenous in cells; host or cells: red blood cells (reagent RBCs used in blood-bank compatibility testing)
# Excerpt: Daratumumab binds to CD38 on red blood cells (RBCs) and results in a positive Indirect Antiglobulin Test (Indirect Coombs test). Daratumumab-mediated positive indirect antiglobulin test may persist for up to 6 months after the last daratumumab administration. Daratumumab bound to RBCs masks detection of antibodies to minor antigens in the patient's serum [see References (15)]. The determination of a patient's ABO and Rh blood type are not impacted [see Drug Interactions (7.1)].
# Daratumumab binds to CD38 on RBCs and interferes with compatibility testing, including antibody screening and cross matching. Daratumumab interference mitigation methods include treating reagent RBCs with dithiothreitol (DTT) to disrupt daratumumab binding [see References (15)] or genotyping. Since the Kell blood group system is also sensitive to DTT treatment, supply K-negative units after ruling out or identifying alloantibodies using DTT-treated RBCs.
# [4] = Daratumumab pharmacokinetics in patients with multiple myeloma; type: in vivo, human
# [5] = COLUMBA monotherapy, safety (relapsed/refractory multiple myeloma)
# Description: FASPRO 1,800 mg/30,000 units administered subcutaneously or daratumumab 16 mg/kg administered intravenously; each administered once weekly from weeks 1 to 8, once every 2 weeks from weeks 9 to 24 and once every 4 weeks starting with week 25 until disease progression or unacceptable toxicity.
# [6] = test system: relapsed or refractory multiple myeloma; test: COLUMBA monotherapy, efficacy; type: in vivo, human
# Excerpt: The major efficacy outcome measures were ORR by the IMWG response criteria and maximum Ctrough at pre-dose Cycle 3 Day 1 [see Clinical Pharmacology (12.3)]. Randomization was stratified by body weight, myeloma type, and number of prior lines of therapy.
# [7] = Hyaluronidase effect on permeability of the subcutaneous tissue
# Excerpt: Hyaluronan is a polysaccharide found in the extracellular matrix of the subcutaneous tissue. It is depolymerized by the naturally occurring enzyme hyaluronidase. Unlike the stable structural components of the interstitial matrix, hyaluronan has a half-life of approximately 0.5 days. Hyaluronidase increases permeability of the subcutaneous tissue by depolymerizing hyaluronan. In the doses administered, hyaluronidase in DARZALEX FASPRO acts locally. The effects of hyaluronidase are reversible and permeability of the subcutaneous tissue is restored within 24 to 48 hours.
# [8] = Hyaluronidase subcutaneous exposure and toxicity in monkeys; type: in vivo
# Description: No carcinogenicity, genotoxicity, or fertility studies were conducted for recombinant human hyaluronidase. […] As hyaluronidase is a recombinant form of the endogenous human hyaluronidase, no carcinogenicity, mutagenesis, or effects on fertility are expected.
# [9] = Hyaluronidase developmental toxicity in mice; type: in vivo
# Excerpt: There were no effects on pre- and post-natal development through sexual maturity in offspring of mice treated daily from implantation through lactation with 990,000 U/kg hyaluronidase subcutaneously, which is 134 times higher than the human doses.
# [10] = monkeys, 22,000 U/kg/week subcutaneously for 39 weeks
molecule,measurement,setting,value
"Daratumumab: IgG1κ human monoclonal antibody that binds CD38; heavy chain SEQ ID NO: 12, light chain SEQ ID NO: 13","effect of sex, age (33 to 92 years), renal impairment (CLcr 15 to 89 mL/min) and mild hepatic impairment on pharmacokinetics",[1],no clinically meaningful effect
same,estimated mean volume of distribution,[2]; CV 28%,10.8 L
same,estimated mean (CV %) linear clearance,[2]; CV 42%,210 mL/day
same,estimated mean (CV %) elimination half-life associated with linear clearance,[2]; CV 74%,28 days
same,persistence of positive indirect antiglobulin test after the last administration,[3],up to 6 months
same,Indirect Antiglobulin Test (Indirect Coombs test) result,[3]; binding to CD38 on RBCs,positive
same,"estimated mean volume of distribution, peripheral compartment",[4]; multiple myeloma,3.8 L
same,estimated mean (CV %) elimination half-life associated with linear clearance,"[4]; multiple myeloma, CV 22%",20 days
same,estimated mean (CV) volume of distribution for the central compartment,"[4]; multiple myeloma, CV 37%",5.2 L
same,estimated mean (CV %) linear clearance,"[4]; multiple myeloma, CV 59%",119 mL/day
"Intravenous Daratumumab: daratumumab 16 mg/kg administered intravenously, comparator arm in COLUMBA","Back pain, All Grades",[5]; monotherapy,12%
same,"Back pain, Grade ≥ 3",[5]; monotherapy,3^# %
same,"Chills, All Grades",[5]; monotherapy,12%
same,"Chills, Grade ≥ 3",[5]; monotherapy,1^# %
same,"Cough, All Grades",[5]; monotherapy,14%
same,"Cough, Grade ≥ 3",[5]; monotherapy,0^ %
same,"Diarrhea, All Grades",[5]; monotherapy,11%
same,"Diarrhea, Grade ≥ 3",[5]; monotherapy,0.4^# %
same,"Dyspnea, All Grades",[5]; monotherapy,11%
same,"Dyspnea, Grade ≥ 3",[5]; monotherapy,1^# %
same,"Fatigue, All Grades",[5]; monotherapy,16%
same,"Fatigue, Grade ≥ 3",[5]; monotherapy,2^# %
same,"Infusion reactions, All Grades",[5]; monotherapy,34%
same,"Infusion reactions, Grade ≥ 3",[5]; monotherapy,5^# %
same,"Nausea, All Grades",[5]; monotherapy,11%
same,"Nausea, Grade ≥ 3",[5]; monotherapy,0.4^# %
same,"Pneumonia, All Grades",[5]; monotherapy,10%
same,"Pneumonia, Grade ≥ 3",[5]; monotherapy,6^@ %
same,"Pyrexia, All Grades",[5]; monotherapy,13%
same,"Pyrexia, Grade ≥ 3",[5]; monotherapy,1^# %
same,"Upper respiratory tract infection, All Grades",[5]; monotherapy,22%
same,"Upper respiratory tract infection, Grade ≥ 3",[5]; monotherapy,1^# %
same,"Decreased hemoglobin, All Grades",[5]; worsening from baseline,39%
same,"Decreased hemoglobin, Grades 3-4",[5]; worsening from baseline,16%
same,"Decreased leukocytes, All Grades",[5]; worsening from baseline,57%
same,"Decreased leukocytes, Grades 3-4",[5]; worsening from baseline,14%
same,"Decreased lymphocytes, All Grades",[5]; worsening from baseline,56%
same,"Decreased lymphocytes, Grades 3-4",[5]; worsening from baseline,36%
same,"Decreased neutrophils, All Grades",[5]; worsening from baseline,43%
same,"Decreased neutrophils, Grades 3-4",[5]; worsening from baseline,11%
same,"Decreased platelets, All Grades",[5]; worsening from baseline,45%
same,"Decreased platelets, Grades 3-4",[5]; worsening from baseline,14%
same,Observed mean ± SD max Ctrough after 8th dose,[4]; patients with multiple myeloma,"522 ± 226^a, b μg/mL"
same,"CR or better, %",[6],2.7%
same,Median progression-free survival,[6],6.1 months
same,"Partial response (PR), %",[6],20%
same,"Very good partial response (VGPR), %",[6],14%
same,"Overall response (sCR + CR + VGPR + PR), %",[6]; intent-to-treat population,37%
"hyaluronidase: recombinant human hyaluronidase rHuPH20, SEQ ID NO: 22, residues 36-482 of wild type human hyaluronidase (protein, listed as Homo sapiens) LNFRAPPVIPNVPFLWAWNAPSEFCLGKFDEPLDMSLFSFIGSPRINATGQGVTIFYVDRLGYYPYIDSITGVTVNGGIPQKISLQDHLDKAKKDITFYMPVDNLGMAVIDWEEWRPTWARNWKPKDVYKNRSIELVQQQNVQLSLTEATEKAKQEFEKAGKDFLVETIKLGKLLRPNHLWGYYLFPDCYNHHYKKPGYNGSCFNVEIKRNDDLSWLWNESTALYPSIYLNTQQSPVAATLYVRNRVREAIRVSKIPDAKSPLPVFAYTRIVFTDQVLKFLSQDELVYTFGETVALGASGIVIWGTLSIMRSMKSCLLLDNYMETILNPYIINVTLAAKMCSQVLCQEQGVCIRKNWNSSDYLHLNPDNFAIQLEKGGKFTVRGKPTLEDLEQFSEKFYCSCYSTLSCKEKADVKDTDAVDVCIADGVCIDAFLKPPMETEEPQIFY",time until permeability of the subcutaneous tissue is restored,[7],24 to 48 h
same,systemic exposure of hyaluronidase,"[8]; monkeys, 22,000 U/kg subcutaneously (12 times the human dose)",No systemic exposure of hyaluronidase was detected
same,effects on reproductive tissues and function,[8]; [10],no effects
same,systemic exposure of hyaluronidase,[8]; [10],no systemic exposure
same,effects on post-natal development through sexual maturity in offspring,"[9]; mice treated daily during lactation, 990,000 U/kg subcutaneously",no effects
same,effects on pre- and post-natal development through sexual maturity in offspring,"[9]; mice treated daily from implantation through lactation, 990,000 U/kg subcutaneously",no effects
same,effects on embryo-fetal development,"[9]; pregnant mice, 330,000 U/kg subcutaneously daily during organogenesis",no effects
